Test results as given in US20220089698A1 (published 2022).

Legend:
HIV gp120 Bal = HIV gp120 Bal (HIV); assay: single-point ELISA; also: test concentration or dose not given here
HIV gp120 CAAN = HIV gp120 CAAN (HIV); assay: single-point ELISA; also: test concentration or dose not given here

Binder | ELISA (A450) (HIV gp120 Bal) | ELISA (A450) (HIV gp120 CAAN)
1.1.36-1 (antibody, human IgG1, kappa) heavy: QVQLLQSGAAVTKPGASVRVSCEASGYNIRDYFIHWWRQAPGQGLQWVGWINPKTGQPNNPRQFQGRVSLTRHASWDFDTFSFYMDLKALRSDDTAVYFCARQRSDYWDFDVWGSGTQVTVSSASTKGPSVFPLAPSSKSTSGGTAALGCLVKDYFPEPVTVSWNSGALTSGVHTFPAVLQSSGLYSLSSVVTVPSSSLGTQTYICNVNHKPSNTKVDKKVEPKSCDKTHTCPPCPAPELLAGPDVFLFPPKPKDTLMISRTPEVTCVVVDVSHEDPEVKFNWYVDGVEVHNAKTKPREEQYNSTYRVVSVLTVLHQDWLNGKEYKCKVSNKALPLPEEKTISKAKGQPREPQVYTLPPSREEMTKNQVSLTCLVKGFYPSDIAVEWESNGQPENNYKTTPPVLDSDGSFFLYSKLTVDKSRWQQGNVFSCSVLHEALHSHYTQKSLSLSPGK light: DIQMTQSPSSLSASVGDRVTITCQANGYLNWYQQKPGKAPKLLIYDGSNLETGVPSRFSGSRWGQEYTLTISSLQPEDIATYFCQVYEFVTPGTNLDIKRTVAAPSVFIFPPSDEQLKSGTASVVCLLNNFYPREAKVQWKVDNALQSGNSQESVTEQDSKDSTYSLSSTLTLSKADYEKHKVYACEVTHQGLSSPVTKSFNRGEC | 0.93 | 0.88
1.31.36-1 (antibody, human IgG1, kappa) heavy: QVQLVQSGAEVTKPGASVRVSCEASGYNIRDYFIHWWRQAPGQGLQWVGWINPKTGQPNNPRQFQGRVSLTRHASWDFDTFSFYMDLKALRSDDTATYFCARQRSDYWDFDVWGSGTQVTVSSASTKGPSVFPLAPSSKSTSGGTAALGCLVKDYFPEPVTVSWNSGALTSGVHTFPAVLQSSGLYSLSSVVTVPSSSLGTQTYICNVNHKPSNTKVDKKVEPKSCDKTHTCPPCPAPELLAGPDVFLFPPKPKDTLMISRTPEVTCVVVDVSHEDPEVKFNWYVDGVEVHNAKTKPREEQYNSTYRVVSVLTVLHQDWLNGKEYKCKVSNKALPLPEEKTISKAKGQPREPQVYTLPPSREEMTKNQVSLTCLVKGFYPSDIAVEWESNGQPENNYKTTPPVLDSDGSFFLYSKLTVDKSRWQQGNVFSCSVLHEALHSHYTQKSLSLSPGK light: DIQMTQSPSSLSASVGDRVTITCQANGYLNWYQQKPGKAPKLLIYDGSNLETGVPSRFSGSRWGQEYTLTISSLQPEDIATYFCQVYEFVTPGTNLDIKRTVAAPSVFIFPPSDEQLKSGTASVVCLLNNFYPREAKVQWKVDNALQSGNSQESVTEQDSKDSTYSLSSTLTLSKADYEKHKVYACEVTHQGLSSPVTKSFNRGEC | 1.06 | 0.9
1.32.36-1 (antibody, human IgG1, kappa) heavy: QVQLVQSGAEVTKPGASVRVSCEASGYNIRDYFIHWWRQAPGQGLQWVGWINPKTGQPNNPRQFQGRVSLTRHASWDFDTFSFYMDLKALRSDDTAVYFCARQRTDYWDFDVWGSGTQVTVSSASTKGPSVFPLAPSSKSTSGGTAALGCLVKDYFPEPVTVSWNSGALTSGVHTFPAVLQSSGLYSLSSVVTVPSSSLGTQTYICNVNHKPSNTKVDKKVEPKSCDKTHTCPPCPAPELLAGPDVFLFPPKPKDTLMISRTPEVTCVVVDVSHEDPEVKFNWYVDGVEVHNAKTKPREEQYNSTYRVVSVLTVLHQDWLNGKEYKCKVSNKALPLPEEKTISKAKGQPREPQVYTLPPSREEMTKNQVSLTCLVKGFYPSDIAVEWESNGQPENNYKTTPPVLDSDGSFFLYSKLTVDKSRWQQGNVFSCSVLHEALHSHYTQKSLSLSPGK light: DIQMTQSPSSLSASVGDRVTITCQANGYLNWYQQKPGKAPKLLIYDGSNLETGVPSRFSGSRWGQEYTLTISSLQPEDIATYFCQVYEFVTPGTNLDIKRTVAAPSVFIFPPSDEQLKSGTASVVCLLNNFYPREAKVQWKVDNALQSGNSQESVTEQDSKDSTYSLSSTLTLSKADYEKHKVYACEVTHQGLSSPVTKSFNRGEC | 0.92 | 0.64
1.31.35-1 (antibody, human IgG1, kappa, V domains shown) VH: QVQLVQSGAEVTKPGASVRVSCEASGYNIRDYFIHWWRQAPGQGLQWVGWINPKTGQPNNPRQFQGRVSLTRHASWDFDTFSFYMDLKALRSDDTATYFCARQRSDYWDFDVWGSGTQVTVSS VL: DIQMTQSPSSLSASVGDRVTITCQANGYLNWYQQKPGKAPKLLIYDGSNLETGVPSRFSGSRWGQEYTLTISSLQPEDIATYFCQVYEFVGPGTNLDIKR | 0.9 | 0.77
1.36.35-1 (antibody, human IgG1, kappa, V domains shown) VH: QVQLVQSGAEVKKPGASVRVSCKASGYNIRDYFMHWWRQAPGQGLQWVGWINPKTGQPNNPRQFQGRVTMTRHASWDFDTFSAYMDLSRLRSDDTATYFCARQRTDYWDFDVWGQGTMVTVSS VL: DIQMTQSPSSLSASVGDRVTITCQANGYLNWYQQKPGKAPKLLIYDGSNLETGVPSRFSGSRWGQEYTLTISSLQPEDIATYFCQVYEFVGPGTNLDIKR | 0.89 | 0.36
1.32.35-1 (antibody, human IgG1, kappa, V domains shown) VH: QVQLVQSGAEVTKPGASVRVSCEASGYNIRDYFIHWWRQAPGQGLQWVGWINPKTGQPNNPRQFQGRVSLTRHASWDFDTFSFYMDLKALRSDDTAVYFCARQRTDYWDFDVWGSGTQVTVSS VL: DIQMTQSPSSLSASVGDRVTITCQANGYLNWYQQKPGKAPKLLIYDGSNLETGVPSRFSGSRWGQEYTLTISSLQPEDIATYFCQVYEFVGPGTNLDIKR | 0.89 | 0.59
1.34.35-1 (antibody, human IgG1, kappa, V domains shown) VH: QVQLVQSGAEVKKPGASVRVSCKASGYNIRDYFIHWWRQAPGQGLQWVGWINPKTGQPNNPRQFQGRVTLTRHASWDFDTFSFYMDLKALRSDDTAVYFCARQRTDYWDFDVWGSGTQVTVSS VL: DIQMTQSPSSLSASVGDRVTITCQANGYLNWYQQKPGKAPKLLIYDGSNLETGVPSRFSGSRWGQEYTLTISSLQPEDIATYFCQVYEFVGPGTNLDIKR | 0.94 | 0.77
1.33.35-1 (antibody, human IgG1, kappa, V domains shown) VH: QVQLVQSGAEVKKPGASVRVSCKASGYNIRDYFIHWWRQAPGQGLQWVGWINPKTGQPNNPRQFQGRVTLTRHASWDFDTFSFYMDLKALRSDDTATYFCARQRSDYWDFDVWGSGTQVTVSS VL: DIQMTQSPSSLSASVGDRVTITCQANGYLNWYQQKPGKAPKLLIYDGSNLETGVPSRFSGSRWGQEYTLTISSLQPEDIATYFCQVYEFVGPGTNLDIKR | 1.03 | 0.81
1.35.35-1 (antibody, human IgG1, kappa, V domains shown) VH: QVQLVQSGAEVKKPGASVRVSCKASGYNIRDYFMHWWRQAPGQGLQWVGWINPKTGQPNNPRQFQGRVTMTRHASWDFDTFSFYMDLSRLRSDDTATYFCARQRTDYWDFDVWGQGTMVTVSS VL: DIQMTQSPSSLSASVGDRVTITCQANGYLNWYQQKPGKAPKLLIYDGSNLETGVPSRFSGSRWGQEYTLTISSLQPEDIATYFCQVYEFVGPGTNLDIKR | 0.88 | 0.67
